Experimental data as given in US6632624.

Target: CGS20
Experiment: competition: pancreastatin peptide (0.5 µg per tube) added in second incubation of CGS06/CGS20* IRMA

% inhibition: 86%
B1: synthetic peptide corresponding to pancreastatin (SEQ ID NO:1 amino acids 250 to 301 of human CgA) (peptide)
peptide: GESRSEALAVDGAGKPGAEEAQDPEGKGEQEHSQQKEEEEEMAVVPQGLFRG
